Measurements: the supplement of paper PMC12042874
± gives the uncertainty stated by the source.

assay: amyloid nucleation score (Sup35N fusion, yeast selection) (log enrichment); library NNK1; higher = more nucleation; inactive = no reads after selection
Procedure, shortened: (§1)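 Random libraries were run with three technical output replicates. In each, psi-negative yeast expressing Sup35N fused to peptides of 20 random codons were induced 24 hours with 100 μM copper sulfate and grown 7 days at 30°C on medium lacking adenine and uracil, and input and output plasmid inserts were Illumina-sequenced. The nucleation score is the DiMSum log enrichment of output over input reads, centred on the mode score of non-aggregating sequences, and sequences under 100 input reads were excluded.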

| Substance | amyloid nucleation score |
| --- | --- |
| VTDEFCPVLSGG | 0.317 ± 0.52 |
| TLRLSFCRYMAFWHCNRSMA | -1.14 ± 1.1 |
| EIQGPVRT | -0.233 ± 0.59 |
| FSSCVNDFLGGRPPSKVLSF | 0.068 ± 0.48 |
| MASRHKEWRCVMYEHGLRAC | 0.58 ± 1.2 |
| WALISYGVWGTRTADLCRCH | 0.907 ± 0.65 |
| MVGCTYVCLADLFCKLLLMS | -0.015 ± 0.41 |
| SCGLTCDAEYGRGFPGLCMM | 0.001 ± 1.1 |
| IVVSQPVFEGYIWLLNVAGG | 4.42 ± 0.094 |
| KKRPRYRRWTS | 0.578 ± 0.52 |
| GFVGYNCLCFCKSVA | -1.05 ± 0.84 |
| HSSWEYSSYGVPSNMEKDWV | inactive |
| NMYNVRLFVPHFSLECLTWY | 2.87 ± 0.12 |
| GIISFANRQSF | 7.944 ± 0.044 |
| LHTCHSLLPLIEYDFISYGV | -0.208 ± 0.7 |
| SKTSEGLLLYVISYRNYYGP | 0.671 ± 0.4 |
| RLKYYNYERFRLVVLCRVHG | -0.053 ± 1.1 |
| RFFFGYAK | 2.02 ± 0.2 |
| NVKPSDDNVSLRNYGIRYLE | -0.29 ± 1.1 |
| LMAHSGSAP | 3.3 ± 0.19 |
| SALHVHRVKGSRREVSRDT | -0.072 ± 0.31 |
| SLDYKFSFLSQ | 6.963 ± 0.045 |
| QIRGGGAGSDSVDGHRALEA | 1.08 ± 0.59 |
| AMYVDQVLHQPRPLMSPRMQ | 0.515 ± 0.51 |
| GLTGLTLWARATRRRVGTLS | -0.153 ± 0.59 |
| DAVPSFTA | -0.666 ± 0.69 |
| SLAQFRWVV | 1.52 ± 0.13 |

| Substance | amyloid nucleation score |
| --- | --- |
| VSYNVRIGWAVYN | 0.89 ± 0.27 |
| GTDRSLAVIFKARCWFWATR | -1.14 ± 1.7 |
| QMYFSFYLLCCLSSEFSI | 3.02 ± 0.11 |
| HLILRTLWYKYLREKFSE | -0.286 ± 0.3 |
| PYWSDKWVFCRLKVVFIHVL | -0.066 ± 0.69 |
| GLWFVC | 0.374 ± 0.75 |
| SCQATLLFLSYSSNVGLIST | -0.267 ± 1.1 |
| CSAVS | 0.241 ± 0.39 |
| ILLPWGMCWWMLCR | 0.036 ± 0.55 |
| QMTCSD | 1.6 ± 0.8 |
| CCFMYAQIDLLNFSMDVLAR | 0.198 ± 0.29 |
| NLASNVRESVGSGIYLMNIS | 1.97 ± 0.6 |
| PYVFLGVMDPRVYDMLLHAN | -0.085 ± 0.24 |
| QVNLANFGRRKCKRKGR | 0.185 ± 0.44 |
| KFIDFERLFSLRGWSVCNER | 0.889 ± 0.24 |
| LLVSLSNCFLIWSSAGSMGG | 1.81 ± 0.23 |
| MGNTLITLIVGSGAL | 3.44 ± 0.18 |
| CIFSRNQGLIHRLEDNGH | 0.685 ± 0.33 |
| SEQSMTY | inactive |
| KCDRHLKSYWSKELHYYYNF | -0.894 ± 0.38 |
| LTFLRIYAIDSEPHLSGTML | -0.51 ± 0.71 |
| DCVKGHSECCRPSKLVKYWR | inactive |
| LGKIAQLYSEEVEQKSGSGV | -0.539 ± 0.42 |
| ISPLSQYARLVRQVSRAWYD | 0.569 ± 0.87 |
| MEVISRSVLSSLSWFGTVEE | 0.598 ± 0.5 |
| HSVFVMVCSSCMVG | 8.892 ± 0.068 |

assay: amyloid nucleation score (Sup35N fusion, yeast selection) (log enrichment); library NNK2; higher = more nucleation; inactive = no reads after selection
Procedure, shortened: as §1

| Substance | amyloid nucleation score |
| --- | --- |
| RYSATLYPTVPPDPLSAWAL | 3.8 ± 0.057 |
| YIVPSKRIWFFGLSSNGDST | 0.102 ± 0.41 |
| LMTSPSFIYVWSYTGFRMFG | 4.983 ± 0.042 |
| WRKRYEYTVRVGRSAKSTLM | 0.455 ± 0.37 |
| NLSILTICMFLPVDFGI | 6.525 ± 0.059 |
| VNVCWLKSATPNSCVDLVNI | 0.946 ± 0.6 |
| KLRVFPLKESVSQGALQTVG | -0.476 ± 0.44 |
| IFRAYIAGKTIYRCDQYVGM | -0.539 ± 0.55 |
| TACSQVVGVIHIIVGRGRSR | 7.292 ± 0.045 |
| RMLCLTSG | -0.59 ± 0.63 |
| SKWYVGRHFPPWPR | 0.769 ± 0.24 |
| KDVTVNIRWTLIQLLYHTNF | 4.08 ± 0.11 |
| RTEEQ | -0.254 ± 0.54 |
| HMAVNTTALAKNLITG | -0.401 ± 0.55 |
| CYSYWPRSPFIWY | -0.978 ± 1.1 |
| FIDVHMEYRDKTRCWLVLVL | -0.891 ± 0.78 |
| CWPCRMMKLVREESAVYTGG | 0.062 ± 0.34 |
| AFNDIYIMKMHIFGKSIVLL | inactive |
| IHYFRTWVYHYGLRGFGIIR | 0.918 ± 0.58 |
| SWFRFCMYWFSDCRNILGS | 4.58 ± 0.051 |
| VGRQSCFVYMWCWTYHMWGL | 1.37 ± 0.32 |
| LRLFFNYWSNWGATEKNYIL | -1.52 ± 1.1 |
| RTHPTCSVCVKLYPLGTPRR | 2.38 ± 0.13 |
| CIGYLMEIHVFSNDAKVYYL | 6.24 ± 0.038 |

| Substance | amyloid nucleation score |
| --- | --- |
| REHSYLSIFLWMCAFVTNVE | -0.98 ± 1.1 |
| RVYPFGRTRIFKTM | 1.33 ± 0.15 |
| SCEVVSRKL | 1.08 ± 0.22 |
| MLVRIYLYRKRSYMVRSALM | 1.52 ± 0.12 |
| KGNAVVSWDRS | 2.36 ± 0.1 |
| YCILLLNVVVMCYMMCDGFA | 0.635 ± 0.65 |
| YGSESVGGSQRSGNLSWGTG | 0.257 ± 0.64 |
| GSLKCDAHLG | 0.339 ± 0.18 |
| DLYSSV | 0.75 ± 0.41 |
| TMIRYVERMVDNLFRNCRLP | 0.827 ± 0.2 |
| WTPTVFVDMHPSNGLVDILY | -0.896 ± 0.61 |
| NYSNFTIKYLNLKRTLLDL | -1.74 ± 0.64 |
| IESRVWVGWSDD | -0.044 ± 0.49 |
| LAGRC | 0.968 ± 0.56 |
| IGDSVGSDWTSTFMCDSVCR | -0.15 ± 0.42 |
| LGYSLAACNQETGNDRYMAR | 0.121 ± 0.34 |
| FSKLVSIYFWGSGWWFCQWA | -0.532 ± 0.64 |
| LIVCWGMWFLQW | -1.74 ± 1.1 |
| MLVPFRVESMSGTRTCKVTV | 4.96 ± 0.08 |
| YSSYYHNFFRW | -0.277 ± 0.28 |
| RVRDYSYGGSQRLGGYMLG | -0.64 ± 0.61 |
| CGPPVIWVLLCKLGMFWTVS | -0.555 ± 0.55 |
| YYYTLLSLHHMFCVTYELSG | 5.443 ± 0.035 |
| MKGACLRGYEVLSMGQSTSY | 0.404 ± 0.8 |

| Substance | amyloid nucleation score |
| --- | --- |
| YLLLLIMDLFKGRACHPRHA | inactive |
| HLLRKDVPQAWT | 3.29 ± 0.11 |
| DWFSTLHLIGSAS | -0.041 ± 0.63 |
| LGSRGSRSIAESFAGKIRI | -0.226 ± 1.1 |
| LSRSDAVRAFFRIMVLWKVV | -0.32 ± 0.63 |
| DWKNYRMMHVEVWTACRILG | 0.734 ± 0.81 |
| VFFLFYTMWRLVYFEPNMKS | -1.25 ± 0.62 |
| PAIYILLWAYSRSSACWLTA | inactive |
| NSRYPDRGILKLVV | 0.409 ± 0.65 |
| SGVIEIMFEKSHRLHCCLFC | 1.08 ± 0.41 |
| HVMCR | 0.225 ± 0.19 |
| VITSYVRRQCVKFCCGARCR | 8.347 ± 0.054 |
| NRMFLLVLFVEL | 0.572 ± 0.27 |
| VVVFMHV | 1.51 ± 0.32 |
| RSELLRRKGILMYLLPGGGY | 0.009 ± 0.61 |
| STSVWRGLSRPRNVQRRLDT | -0.985 ± 0.42 |
| GKLLRHFGLMYCLFLIAAYG | 0.108 ± 0.42 |
| SWRIDNVGSRWSTMVCC | 6.09 ± 0.063 |
| IWGGKDLFGGQDWNTLSYLP | -0.283 ± 0.6 |
| KMLSWP | -0.412 ± 1.1 |
| YISMKWEVAHNYWWILSGIP | 0.444 ± 0.25 |
| SLYKHSTHWRLCSTMAIVKP | 0.953 ± 0.51 |
| YFPIASALNCSLGCARCCES | 0.669 ± 0.74 |
| KRKKQKFAMLYVSGNLLRRD | 0.234 ± 0.28 |

| Substance | amyloid nucleation score |
| --- | --- |
| KLYFCYLEI | -1.25 ± 1.1 |
| IVVKFCWCVGQSRYTGMSTN | 6.71 ± 0.052 |
| NVCRVDMAEKFGSFRLCN | -0.846 ± 0.34 |
| CHRKWRYLMEASHRLSHSSW | inactive |
| VNLWCRYDWGVPGDSWGRDG | 2.92 ± 0.078 |
| HRSLIIF | 1.97 ± 0.19 |
| TAKLFDISTCKCPD | -0.105 ± 0.79 |
| CLYLACIEGWLP | 3.24 ± 0.056 |
| FTPIGIIMYSFFKRTFTFVT | -1.06 ± 1.1 |
| NACPVCSRW | 0.589 ± 0.38 |
| CIFPPYVWYGIVMVYASMYG | 6.602 ± 0.039 |
| SVGVTVSRVASREGSSRSRA | 0.573 ± 0.36 |
| NGNTVVLGSLIFYKLVLVAS | 5.64 ± 0.033 |
| SWWAY | 0.69 ± 0.62 |
| GDVYCNGLGISFVYFRGSRS | inactive |
| KHSRMYLR | 1.49 ± 0.17 |
| AQLRKMSSVNYV | -0.825 ± 1.1 |
| ALQDMTI | -0.176 ± 0.36 |
| LVVSI | -0.876 ± 0.78 |
| LEVLVLDVYSYVSLHVGTFV | 0.051 ± 0.35 |
| VMLGHYTVLFGVKVRECREG | 1.7 ± 0.19 |
| YYVLWSGVGIVMDSAYDTIC | -0.017 ± 1 |
| RWHFDYRVKQV | -0.058 ± 0.37 |
| MESINSVSSSNIVHRFRRGV | 5.58 ± 0.077 |

| Substance | amyloid nucleation score |
| --- | --- |
| LLVAALSHGPGISRSVNSHP | 5.91 ± 0.061 |
| KMAIGLCVSTLQ | 0.333 ± 0.42 |
| KWFNVCIWKCAWLYIDGVGC | 3.95 ± 0.066 |
| LTDSKSALRLAMR | 4.48 ± 0.039 |
| VLNRGGETAYTSMFDVYYI | -0.097 ± 0.63 |
| VMRMWRVSMRF | 6.068 ± 0.032 |
| KARLIAITHLPRYYWSFGVL | 0.388 ± 0.62 |
| DSSSVGGVLPVCVNSKSMED | -0.236 ± 0.41 |
| SVLIFATRKCLYFYLGFMR | -1.66 ± 0.45 |
| GSLARSTD | 1.25 ± 0.15 |
| IFDRNSYFKEHFVMIGLEGR | 0.228 ± 1 |
| SYEVNIYKLRLQGSSSGF | 3.44 ± 0.066 |
| AMGVC | -0.061 ± 0.41 |
| DRPGDRSGTAWAWFRCETGG | 1.1 ± 0.31 |
| GLPVCYNRVT | -1.22 ± 1 |
| WFIILRLIYVYGTNCAVYMV | -0.003 ± 0.42 |
| LTPYEYCVYDCFLSLESVLF | inactive |
| LSDIRWMSCGGVL | -0.602 ± 1.1 |
| WKIQACVSYQQGAVRGVCVD | 0.139 ± 0.34 |
| VLTALVYVEITF | 5.41 ± 0.066 |
| FIEHT | -0.716 ± 0.45 |
| ICRDWVDDNVFKIMGRTQRS | 0.099 ± 0.45 |
